# Data from US20240360242A1 (KISOJI BIOTECHNOLOGY, published 2024).
# T1: recombinant human EpCAM (human, UniProt P16422 24-265)
# T1 construct: also called rhEpCAM
# T1 sequence (looked up): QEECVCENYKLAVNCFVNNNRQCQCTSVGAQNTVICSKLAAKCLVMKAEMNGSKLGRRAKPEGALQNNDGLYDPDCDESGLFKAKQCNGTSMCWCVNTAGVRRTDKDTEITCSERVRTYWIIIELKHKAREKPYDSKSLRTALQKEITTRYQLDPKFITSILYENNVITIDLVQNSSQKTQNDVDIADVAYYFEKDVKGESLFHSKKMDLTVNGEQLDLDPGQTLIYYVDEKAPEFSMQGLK
# T2: recombinant human IGFBP-1 (human, UniProt P08833 26-259)
# T2 construct: also called rhIGFB-1
# T2 sequence (looked up): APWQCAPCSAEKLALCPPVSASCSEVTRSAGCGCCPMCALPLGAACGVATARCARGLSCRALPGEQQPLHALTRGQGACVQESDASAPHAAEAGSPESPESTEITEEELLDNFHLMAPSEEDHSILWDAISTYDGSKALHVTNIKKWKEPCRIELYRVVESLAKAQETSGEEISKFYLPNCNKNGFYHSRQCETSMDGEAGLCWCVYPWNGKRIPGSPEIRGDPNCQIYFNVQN
# T3: HEK-TROP2 Δ27-36
# T3 construct: also called TROP2 delta 27-36
# T3 membrane protein on transfected HEK cells: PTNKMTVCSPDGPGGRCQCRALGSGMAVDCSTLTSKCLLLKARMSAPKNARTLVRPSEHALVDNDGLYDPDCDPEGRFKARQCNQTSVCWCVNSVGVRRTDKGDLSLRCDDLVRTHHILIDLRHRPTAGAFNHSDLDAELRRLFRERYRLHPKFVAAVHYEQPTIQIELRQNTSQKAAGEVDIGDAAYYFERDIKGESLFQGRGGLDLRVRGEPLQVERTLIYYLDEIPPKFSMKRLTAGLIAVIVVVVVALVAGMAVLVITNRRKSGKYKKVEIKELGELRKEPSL
# T4: HEK-TROP2 Δ27-44
# T4 construct: also called TROP2 delta 27-44
# T4 membrane protein on transfected HEK cells: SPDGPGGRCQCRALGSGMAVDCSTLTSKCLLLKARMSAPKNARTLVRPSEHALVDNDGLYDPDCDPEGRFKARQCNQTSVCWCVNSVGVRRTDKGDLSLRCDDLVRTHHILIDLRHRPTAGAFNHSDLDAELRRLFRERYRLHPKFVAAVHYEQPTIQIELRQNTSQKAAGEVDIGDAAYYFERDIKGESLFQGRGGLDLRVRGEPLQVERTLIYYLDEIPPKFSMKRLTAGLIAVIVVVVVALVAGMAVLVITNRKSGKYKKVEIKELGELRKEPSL
# T5: TROP2 delta 27-56 on HEK cells (human, UniProt P09758 1-323)
# T5 construct: Human TROP2 with residues 27-56 deleted, transiently transfected into HEK cells; also called TROP2 with 27-56 regions truncated
# T5 chain: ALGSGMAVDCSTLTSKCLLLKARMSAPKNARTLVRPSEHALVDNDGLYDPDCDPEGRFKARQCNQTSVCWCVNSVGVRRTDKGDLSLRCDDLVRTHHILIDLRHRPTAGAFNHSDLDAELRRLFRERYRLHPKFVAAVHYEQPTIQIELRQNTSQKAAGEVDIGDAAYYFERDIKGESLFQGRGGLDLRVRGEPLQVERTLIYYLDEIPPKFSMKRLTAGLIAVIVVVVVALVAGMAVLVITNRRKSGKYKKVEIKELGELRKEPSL
# T6: recombinant human TROP2 extracellular domain (aa 1-274) comprising His tag (human, UniProt P09758 27-274)
# T6 construct: Used here for all assays on recombinant human TROP2 (ELISA, immunoblot, SPR, crystal), although only some of them name the catalogue number; also called human recombinant TROP2; recombinant human TROP2 protein; not shown: His tag
# T6 sequence: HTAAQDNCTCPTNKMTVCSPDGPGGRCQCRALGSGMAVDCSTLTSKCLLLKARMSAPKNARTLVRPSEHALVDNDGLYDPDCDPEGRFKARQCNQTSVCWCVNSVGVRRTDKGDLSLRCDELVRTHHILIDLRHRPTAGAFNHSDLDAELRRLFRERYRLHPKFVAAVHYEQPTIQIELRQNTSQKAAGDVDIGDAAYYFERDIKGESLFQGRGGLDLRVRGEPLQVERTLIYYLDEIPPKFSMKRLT
# B1: KD006 (antibody, human IgG1, V domains shown)
# VH: QVQLQESGGGLVQAGNSLRLSCVASVRTFSTKAMGWFRQAPGKEREFTAAISESGSTYYADSVKDRFTISRDNVKNTVYLQMNSLKPEDTAVYYCGVKWYSGSFDDTRSYDYWGQGTQVTVSS
# notes: also called anti-TROP2 sdAb KD006
# B2: KD020 (antibody, V domains shown)
# VH: EVQLVESGGGLVQPGGSLRLSCAASGFPFSSADMHWVRQAPGKGLVWVSRINADGSKTSYADTVKGRFTISRDNAKNTLYLQMNSLRAEDTAVYYCARAKLTDTHYVEDYWGQGTLVTVSS
# notes: KD002 humanized variant
# What was measured:
# recombinant human EpCAM = target: T1, recombinant human EpCAM; assay: ELISA
# [1] = target: T2, recombinant human IGFBP-1; assay: ELISA
# HEK-TROP2 Δ27-36 = target: T3, HEK-TROP2 Δ27-36; assay: flow cytometry, 100 nM antibody, transiently transfected HEK cells, APC anti-human Fc
# Method: (§1) To determine the effect of TROP2 truncations on the binding ability of anti-TROP2 sdAbs, the HEK parental cells were transiently transfected with human TROP2 mutants by lipofectamine. 24 hours after transfection, cells were collected and stained with anti-TROP2 antibodies (FIG. 13A and FIG. 13B). In brief, 1×10⁵ cells were incubated with an Fc receptor blocking antibody (1/100 dilution) for 10 minutes at room temperature. Anti-TROP2 antibodies were diluted in FACS staining buffer to 100 nM and added and incubated with cells for 30 minutes on ice. After washing three times with FACS staining buffer, APC-conjugated secondary antibodies recognizing the human Fc region (Biolegend, Cat #410712) were mixed with cells. After staining for 30 minutes, cells were washed three times, followed by resuspension into 100 μL of 7-Amino-Actinomycin D (7-AAD) solution (BD Biosciences, Cat #559925).
# HEK-TROP2 Δ27-44 = target: T4, HEK-TROP2 Δ27-44; assay: as above
# Method: as §1
# [2] = target: T5, TROP2 delta 27-56 on HEK cells; assay: as above
# Method: as §1
# [3] = target: T6, recombinant human TROP2 extracellular …; assay: competitive ELISA on coated recombinant human TROP2, competitor 1428.6 pM His-tagged KD006, anti-His-HRP secondary Ab
# Method: The epitope characterization was assessed by competitive ELISA (FIG. 8 and FIG. 9). Microplates were coated with human recombinant TROP2 at 4° C. overnight. After washing, plates were blocked with blocking buffer (PBS+2% BSA), for 1 hour at room temperature. Meanwhile, the dilution for anti-TROP2 VHH sdAbs was prepared with blocking buffer making two different dilutions depending on the tag. For sdAbs with His tag, the antibody was diluted to 28571.4 pM. For sdAbs without tag, antibodies were serially diluted from 2857142.9 pM to 0.29 pM (8 dilutions, 10×). […] After washing two times, the mixed antibody contents were added into the wells and the plates were incubated for 2 hours at room temperature. The HRP-conjugated anti-6× His was diluted to 1:5000 and added to the wells after washing three times. Any unbound conjugate was removed by washing after 1 hour incubation at room temperature, and the colorimetric reaction was performed by adding the same volume of Supersignal ELISA Pico Luminol/Enhancer and SuperSignal ELISA Pico Stable Peroxide Solution and detected on SpectraMax i3x Microplate Reader. Positive and negative controls were included in each plate.
# [4] = target: T6, recombinant human TROP2 extracellular …; assay: ELISA on coated recombinant human TROP2, 0.00256-200 nM, RLU
# Method: Human TROP2 recombinant proteins were coated on 96-well ELISA plates at the concentration of 1 μg/mL. Plates were covered with adhesive plate cover and stored at 4° C. overnight. The next day, plates were washed 3× with washing buffer (PBS with 0.1% Tween™ 20). Plates were blocked with 2% fat-free BSA in washing buffer for 1 hour at 37° C. During the incubation time, the TROP2 reference antibodies, as well as the humanized variants, were diluted in the blocking buffer to the indicated concentrations. […] After blocking, the blocking buffer was removed from the wells and 100 μL of anti-TROP2 sdAbs dilutions were transferred to the corresponding wells. Plates were covered with adhesive plates cover and incubated at 37° C. for 1 hour. During the primary antibody incubation, the secondary antibody (goat anti-human IgG, HRP conjugated) was diluted 1 in 5000 with the blocking buffer. Plates were washed 3× with blocking buffer, followed by secondary antibody incubation for another 1 hour at 37° C. After the secondary antibody incubation, plates were washed 3× with washing buffer and added with 100 μL of ELISA chemiluminescent substrate (Thermofisher). The luminescence signal was detected by SpectraMax i3x at […].
Binder,binding result (recombinant human EpCAM),binding result [1],binding result (HEK-TROP2 Δ27-36),binding result (HEK-TROP2 Δ27-44),binding result [2],IC50 (read off the curve) [3],binding result [4]
B1,no binding,no binding,binds,binds,binds,~4 nM,
B2,,,,,,,binds
